The chains are these.
B1: Flagellar motor switch protein FliG (Escherichia coli (strain K12)), P0ABZ1 (parent)
chain: MSNLTGTDKSVILLMTIGEDRAAEVFKHLSQREVQTLSAAMANVTQISNKQLTDVLAEFEQEAEQFAALNINANDYLRSVLVKALGEERAASLLEDILETRDTASGIETLNFMEPQSAADLIRDEHPQIIATILVHLKRAQAADILALFDERLRHDVMLRIATFGGVQPAALAELTEVLNGLLDGQNLKRSKMGGVRTAAEIINLMKTQQEEAVITAVREFDGELAQKIIDEMFLFENLVDVDDRSIQRLLQEVDSESLLIALKGAEQPLREKFLRNMSQRAADILRDDLANRGPVRLSQVENEQKAILLIVRRLAETGEMVIGSGEDTYV
partner: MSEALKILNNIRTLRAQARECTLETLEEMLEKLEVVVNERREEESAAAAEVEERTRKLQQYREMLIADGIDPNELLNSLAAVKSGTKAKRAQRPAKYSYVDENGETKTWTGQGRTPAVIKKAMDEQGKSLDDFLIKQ
B2: DNA-binding protein H-NS (Escherichia coli (strain K12)), P0ACF8 (parent)
chain: B1 partner
partner: B1 chain
B3: Flagellar motor switch protein FliG (Escherichia coli (strain K12)), P0ABZ1 (parent)
chain: B1 chain
partner: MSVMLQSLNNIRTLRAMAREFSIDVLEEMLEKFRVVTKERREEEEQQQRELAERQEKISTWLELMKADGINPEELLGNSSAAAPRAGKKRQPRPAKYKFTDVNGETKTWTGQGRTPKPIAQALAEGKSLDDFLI

Variants of B1 are the subject of one assay. The note with it: with hns_ecoli hns, P0ACF8.
With H126W, the “effect of a mutation on the interaction” value was “disrupting interaction strength”.

Turning to R160W, the “effect of a mutation on the interaction” value is recorded as “disrupting interaction strength”.

Regarding Q128W, the “effect of a mutation on the interaction” value is on record as “decreasing interaction strength”.

In the case of E125W, the “effect of a mutation on the interaction” value is reported as “decreasing interaction strength”.

The next assay covers variants of B2. The note with it: with flig_ecoli fliG, P0ABZ1.
As for R114W, the “effect of a mutation on the interaction” value is on record as “decreasing interaction strength”.

For G113D, the “effect of a mutation on the interaction” value is given as “decreasing interaction strength”.

In the case of Q112D, the “effect of a mutation on the interaction” value is “decreasing interaction”.

Another assay covers variants of B3. The note with it: with stpa_ecoli stpA.
As for H126W, the “effect of a mutation on the interaction” value is “disrupting interaction strength”.

Regarding R160W, the “effect of a mutation on the interaction” value is given as “disrupting interaction strength”.

On to E125W, for which the “effect of a mutation on the interaction” value is “disrupting interaction strength”.

These data come from IntAct's records for PubMed 21890701.
